Experimental data as given in patent US20230365698A1, “ANTI-IFNAR1 DOSING REGIME FOR SUBCUTANEOUS INJECTION” (published 2023).

How the values were obtained:
[1] = target: T1, subunit 1 of the type I interferon receptor (IFNAR1), in patients (human, UniProt P17181); assay: cell-based or functional assay
T1 sequence: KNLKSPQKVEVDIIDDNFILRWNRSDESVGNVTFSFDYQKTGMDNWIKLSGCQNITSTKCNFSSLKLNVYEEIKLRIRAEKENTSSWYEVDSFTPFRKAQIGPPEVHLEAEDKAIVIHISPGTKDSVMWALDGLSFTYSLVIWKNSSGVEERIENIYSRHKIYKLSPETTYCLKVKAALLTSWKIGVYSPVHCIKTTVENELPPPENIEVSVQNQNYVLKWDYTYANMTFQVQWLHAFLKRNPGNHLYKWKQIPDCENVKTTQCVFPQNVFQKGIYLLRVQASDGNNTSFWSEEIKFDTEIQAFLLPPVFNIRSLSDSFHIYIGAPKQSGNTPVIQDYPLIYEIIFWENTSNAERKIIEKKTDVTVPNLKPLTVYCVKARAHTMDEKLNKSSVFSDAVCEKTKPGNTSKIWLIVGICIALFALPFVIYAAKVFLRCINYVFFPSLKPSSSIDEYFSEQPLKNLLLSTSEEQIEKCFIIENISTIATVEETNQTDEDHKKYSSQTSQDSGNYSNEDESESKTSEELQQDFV

[2] = target: T1, subunit 1 of the type I interferon …; assay: cell-based or functional assay; remark: listed apart in the source

IC80: approximate anifrolumab concentration required to produce 80% of the maximum inhibition of the 21-IFNGS expression relative to baseline (PK/PD model estimate) [1]: 3.88 µg/mL
IC50 (nM): anifrolumab concentration required to produce 50% of the maximum inhibition of the 21-IFNGS expression relative to baseline (PK/PD model estimate from TULIP-1 and TULIP-2 data) [2]: 6.56 nM
B1: Anifrolumab (antibody, V domains shown)
VH: EVQLVQSGAEVKKPGESLKISCKGSGYIFTNYWIAWVRQMPGKGLESMGIIYPGDSDIRYSPSFQGQVTISADKSITTAYLQWSSLKASDTAMYYCARHDIEGFDYWGRGTLVTVSS
VL: EIVLTQSPGTLSLSPGERATLSCRASQSVSSSFFAWYQQKPGQAPRLLIYGASSRATGIPDRLSGSGSGTDFTLTITRLEPEDFAVYYCQQYDSSAITFGQGTRLEIKR
